Assay results published in publication PMC12212138, “Crystal structure and mutagenesis of a nucleic acid–binding BRCT domain in human PARP4”.

Assays:
Settings in all cases: protein: recombinant; tags: N-terminal His-SUMO removed by TEV; label: 5'-6-FAM; predicted intramolecular fold
[1] = biological target: T1, PARP4 BRCT K23/24Q (human, UniProt Q9UKK3 1-100, K23Q;K24Q); assay: FP; 3 nM probe; FP: 50 mM Tris pH 7.5, 50 mM NaCl, 1 mM MgCl2, 0.05% NP40, 2 mM DTT, 5% glycerol, 25 ug/ml BSA, room temp 30 min; EMSA: 50 mM Tris pH 7.5, 50 mM NaCl, 4% Ficoll PM400, 0.05% NP40, 2 mM DTT, 0-18 uM protein, room temp 30 min, gel at 4 C
T1 sequence: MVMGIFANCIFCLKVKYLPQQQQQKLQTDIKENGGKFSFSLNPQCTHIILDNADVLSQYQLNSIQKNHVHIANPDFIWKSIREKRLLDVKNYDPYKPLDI

[2] = biological target: T2, PARP4 BRCT K31Q (human, UniProt Q9UKK3 1-100, K31Q); assay: as above
T2 sequence: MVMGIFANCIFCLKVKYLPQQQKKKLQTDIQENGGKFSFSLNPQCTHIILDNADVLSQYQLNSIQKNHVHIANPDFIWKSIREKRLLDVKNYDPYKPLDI

[3] = biological target: T3, PARP4 BRCT F39A (human, UniProt Q9UKK3 1-100, F39A); assay: as above
T3 sequence: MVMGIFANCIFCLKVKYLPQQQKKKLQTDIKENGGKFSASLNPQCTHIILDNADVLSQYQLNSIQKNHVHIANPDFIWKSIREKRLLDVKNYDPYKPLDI

[4] = biological target: T2, PARP4 BRCT K31Q; assay: EMSA; 20 nM probe; FP: 50 mM Tris pH 7.5, 50 mM NaCl, 1 mM MgCl2, 0.05% NP40, 2 mM DTT, 5% glycerol, 25 ug/ml BSA, room temp 30 min; EMSA: 50 mM Tris pH 7.5, 50 mM NaCl, 4% Ficoll PM400, 0.05% NP40, 2 mM DTT, 0-18 uM protein, room temp 30 min, gel at 4 C
[5] = biological target: T4, PARP4 BRCT-WGR-CAT WT (human, UniProt Q9UKK3 1-573); assay: as above
T4 sequence: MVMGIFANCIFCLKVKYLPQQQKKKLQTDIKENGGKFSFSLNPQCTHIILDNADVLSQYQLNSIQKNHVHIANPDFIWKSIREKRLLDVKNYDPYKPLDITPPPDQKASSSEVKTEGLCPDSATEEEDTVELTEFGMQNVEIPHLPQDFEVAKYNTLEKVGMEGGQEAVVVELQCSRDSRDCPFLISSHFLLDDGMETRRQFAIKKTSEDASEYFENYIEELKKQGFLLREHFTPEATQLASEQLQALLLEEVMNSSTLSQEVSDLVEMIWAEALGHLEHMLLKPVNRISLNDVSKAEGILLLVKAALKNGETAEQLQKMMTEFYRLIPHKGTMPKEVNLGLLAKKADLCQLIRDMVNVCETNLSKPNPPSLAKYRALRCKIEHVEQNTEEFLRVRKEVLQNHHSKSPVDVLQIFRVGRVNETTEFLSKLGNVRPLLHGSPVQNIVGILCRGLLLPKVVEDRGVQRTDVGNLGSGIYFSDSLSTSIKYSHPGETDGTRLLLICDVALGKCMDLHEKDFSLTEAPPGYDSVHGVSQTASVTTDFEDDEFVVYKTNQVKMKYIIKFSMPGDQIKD

[6] = biological target: T3, PARP4 BRCT F39A; assay: as above

B1: vtRNA1-3 (structured_RNA)
RNA: GGCUGGCUUUAGCUCAGCGGUUACUUCGCGUGUCAUCAAACCACCUCUCUGGGUUGUUCGAGACCCGCGGGCGCUCUCCAGCCCUCUU
With B1 the binding result [1] was “no binding”, the Kd [2] was 61000 ± 12000 nM and the Kd [3] was 33000 ± 2000 nM. It also gave a Kd [4] of 3000 ± 1000 nM, a Kd [5] of 3000 ± 1000 nM and a Kd [6] of 600 ± 100 nM.
